# In patent US20220033481A1 (NANJING LEGEND BIOTECH, published 2022):
# Changes are numbered by the printed parent chain.
# B1: AS01299 sdAb (VHH)
# VHH: QVQLVESGGGLVQPGGSLRLSCAASGSIFSIATMAWYRQAPGKQRELVAGITRSGSTNYRDSVKGRFTISRDNAKNTMYLQMNSLKPEDTAVYYCTDYSSRYYHDYWGQGTQVTVSS
# notes: Llama sdAb made in E. coli with a C-terminal 6xHis tag; also called sdAb AS01299
# B2: AS01274 sdAb (VHH)
# VHH: QVQLVESGGGLVQPGGSLRLSCVASGSIASIATMAWYRQAPGQQRELVAGITRGGSTKYADSVKGRFTISRDNAKNTLYLQMNSLKPDDTAVYYCTDYSRKYYQDYWGQGTQVTVSS
# notes: Llama sdAb made in E. coli with a C-terminal 6xHis tag; also called sdAb AS01274
# B3: AS01299VH3a (VHH)
# VHH: B1 VHH with Q1E, Q44G, R45L, A74S, K86R, P87A, Q112L
# notes: Humanized variant of AS01299, C-terminal 6xHis tag
# B4: AS01299VH4-L47 (VHH)
# VHH: B1 VHH with Q1E, Q44G, R45L, L47W, A49S, A74S, M78L, K86R, P87A, Q112L
# notes: Humanized variant of AS01299, C-terminal 6xHis tag; also called AS01299VH4-L47-2
# B5: AS01299VH4 (VHH)
# VHH: B1 VHH with Q1E, Q44G, R45L, A49S, A74S, M78L, K86R, P87A, Q112L
# notes: as for B3
# B6: AS01299VH3a-L47 (VHH)
# VHH: B1 VHH with Q1E, Q44G, R45L, L47W, A74S, K86R, P87A, Q112L
# notes: Humanized variant of AS01299, C-terminal 6xHis tag; also called AS01299VH3a-L47-2
# B7: AS01299VH3a-M78 (VHH)
# VHH: B1 VHH with Q1E, Q44G, R45L, A74S, M78L, K86R, P87A, Q112L
# notes: as for B3
# B8: AS01299VH3a-A49 (VHH)
# VHH: B1 VHH with Q1E, Q44G, R45L, A49S, A74S, K86R, P87A, Q112L
# notes: as for B3
# B9: AS01274VHa (VHH)
# VHH: B2 VHH with Q1E, V23A, Q43K, Q44G, R45L, A74S, K86R, P87A, D88E, Q112L
# notes: Humanized variant of AS01274, C-terminal 6xHis tag
# B10: AS01274VHa-A49 (VHH)
# VHH: EVQLVESGGGLVQPGGSLRLSCAASGSIASIATMAWYRQAPGKGLELVSGITRGGSTKYADSVKGRFTISRDNSKNTLYLQMNSLRAEDTAVYYCTDYSRKYYQDYWGQGTLVTVSS
# notes: as for B9
# Tests used:
# [1] = biological target: T1, cynomolgus monkey transferrin (cynomolgus monkey, UniProt A0A2K5UXZ0 20-695); assay: SPR, BIAcore T200, sdAb amine-coupled to CM5 chip, transferrin injected
# T1 construct: also called cynomolgus transferrin
# Procedure: (§1) Experiments were performed using a BIAcore T200 optical sensor platform and research grade CM5 sensor chips (GE Healthcare). AS01274 sdAb and AS01299 sdAb were immobilized on the sensor chip surface by standard amine coupling. All experiments were carried out in HEPES buffer [10 mM HEPES (pH 7.4), 150 mM NaCl, 3.4 mM EDTA, 0.005% Tween 20] at 25° C. Human Transferrin and Cynomolgus monkey Transferrin were injected at serial dilutions ranging from 3.9 nM to 2000 nM at a flow rate of 30 μl/min unless otherwise indicated. The amount of bound analyte after subtraction from the blank control surface is shown as relative response units (RU). The double referenced sensorgrams from each injection series were analyzed for binding kinetics using BIA evaluation software (GE Healthcare). Dissociation constants (KDs) were calculated from the on- and off-rates (kₒₙ and koff, respectively), as determined by global fitting of the experimental data to a 1:1 Langmuir binding model (Chi²<1).
# human transferrin [2] = biological target: T2, human transferrin (human, UniProt P02787 20-698); assay: as above
# Procedure: as §1
# [3] = biological target: T1, cynomolgus monkey transferrin; assay: SPR, BIAcore T200, cynomolgus monkey transferrin as ligand, sdAb as analyte
# human transferrin [4] = biological target: T2, human transferrin; assay: SPR, BIAcore T200, human transferrin amine-coupled to CM5 chip, sdAb injected
# Procedure: as §1, with “Healthcare; Little Chalfont, United Kingdom). Human transferrin was” for “Healthcare). AS01274 sdAb and AS01299 sdAb were”, “Human Transferrin and Cynomolgus monkey Transferrin were injected at serial dilutions ranging from 3.9 nM to 2000 nM at a flow rate of 30 μl/min unless otherwise indicated.” left out
# T2 sequence (P02787 20-698 limits assumed): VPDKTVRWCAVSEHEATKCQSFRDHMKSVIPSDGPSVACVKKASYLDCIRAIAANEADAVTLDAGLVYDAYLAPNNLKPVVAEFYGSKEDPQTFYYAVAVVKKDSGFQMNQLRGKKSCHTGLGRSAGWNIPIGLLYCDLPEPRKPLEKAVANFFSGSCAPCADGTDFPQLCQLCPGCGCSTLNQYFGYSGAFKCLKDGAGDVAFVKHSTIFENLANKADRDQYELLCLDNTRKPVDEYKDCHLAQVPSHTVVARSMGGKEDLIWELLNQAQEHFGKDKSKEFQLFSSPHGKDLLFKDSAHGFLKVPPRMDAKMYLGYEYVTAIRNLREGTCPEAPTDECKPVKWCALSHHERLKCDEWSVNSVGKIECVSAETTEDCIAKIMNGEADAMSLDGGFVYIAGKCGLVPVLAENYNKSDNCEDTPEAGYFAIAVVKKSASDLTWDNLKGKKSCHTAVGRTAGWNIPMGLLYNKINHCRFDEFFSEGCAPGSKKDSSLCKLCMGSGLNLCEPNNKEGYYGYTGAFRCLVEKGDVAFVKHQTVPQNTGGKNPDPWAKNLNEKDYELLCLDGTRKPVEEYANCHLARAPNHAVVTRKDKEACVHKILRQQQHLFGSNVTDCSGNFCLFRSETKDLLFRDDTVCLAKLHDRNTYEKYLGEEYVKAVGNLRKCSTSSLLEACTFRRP
Binder,Kd [1] [nM],koff [1] [s⁻¹],kon [1] [M⁻¹ s⁻¹],Kd (human transferrin [2]) [nM],koff (human transferrin [2]) [s⁻¹],kon (human transferrin [2]) [M⁻¹ s⁻¹],Kd [3] [nM],koff [3] [s⁻¹],kon [3] [M⁻¹ s⁻¹],Kd (human transferrin [4]) [nM],koff (human transferrin [4]) [s⁻¹],kon (human transferrin [4]) [M⁻¹ s⁻¹]
B1,8.8,0.00046,52000,140,0.0031,22000,0.065,0.00056,8.6e+06,0.98,0.0022,2.2e+06
B2,1.6,4.4e-05,27000,16,0.00019,12000,0.0067,8.9e-05,1.3e+07,0.09,0.0003,3.3e+06
B3,–,–,–,–,–,–,0.057,0.00028,4.9e+06,1.3,0.0011,810000
B4,–,–,–,–,–,–,0.071,0.00066,9.3e+06,6,0.0035,590000
B5,–,–,–,–,–,–,0.054,0.0003,5.7e+06,1.1,0.0011,1e+06
B6,–,–,–,–,–,–,0.053,0.00048,8.9e+06,3.7,0.0025,680000
B7,–,–,–,–,–,–,0.058,0.0003,5.2e+06,1.1,0.0012,1e+06
B8,–,–,–,–,–,–,0.1,0.00027,2.6e+06,2.4,0.001,420000
B9,–,–,–,–,–,–,0.011,8.1e-05,7.3e+06,0.13,0.0002,1.5e+06
B10,–,–,–,–,–,–,0.009,7.9e-05,8.7e+06,0.11,0.00016,1.5e+06
